In one assay the target is Protein A-agarose beads (UniProt P38507). The assay is described as follows: phage titer after protein A-agarose.
The target of assay [1] is trypsin (immobilized active trypsin, Pierce; or free trypsin) (UniProt P00760). The assay can be described thus: phage on beads, elution, pfu.
Assay [2] addresses anhydro-trypsin (agarose-immobilized, Pierce) (UniProt P00760). The assay can be described thus: phage on beads, elution, pfu.
The target of assay [3] is normal rabbit serum / IgG purified from normal rabbit serum. The assay is described as follows: phage titer after normal rabbit IgG and protein A-agarose.
The target of assay [4] is anhydro-trypsin (agarose-immobilized, Pierce) (UniProt P00760). The assay is described as follows: phage on beads, acid elution, pfu; experiment 2.
Assay [5] addresses trypsin (immobilized active trypsin, Pierce; or free trypsin) (UniProt P00760). The assay is described as follows: phage on beads, acid elution, pfu.
Assay [6] addresses human neutrophil elastase (HNE), immobilized on agarose beads (human) (UniProt P08246). The assay can be described thus: phage on beads, acid elution, pfu.
Assay [7] has as its target normal rabbit serum / IgG purified from normal rabbit serum. The assay can be described thus: phage titer after normal rabbit IgG.
The target of assay [8] is anhydro-trypsin (agarose-immobilized, Pierce) (UniProt P00760). The assay is described as follows: phage on beads, acid elution, pfu; experiment 1.
Assay [9] shares this target. The assay can be described thus: phage on agarose beads, pH 2.2 elution, dot blot.
Assay [10] concerns the target streptavidin (agarose-immobilized, Sigma) (UniProt P22629). The assay is described as follows: phage on agarose beads, pH 2.2 elution, dot blot.
In assay [11] the target is trypsin (immobilized active trypsin, Pierce; or free trypsin) (UniProt P00760). The assay can be described thus: phage on trypsin beads, pH 2.2 elution.
In assay [12] the target is anhydro-trypsin (agarose-immobilized, Pierce) (UniProt P00760). The assay can be described thus: phage titer after incubation with agarose beads.
Assay [13] concerns the target streptavidin (agarose-immobilized, Sigma) (UniProt P22629). The assay is described as follows: phage titer after incubation with agarose beads.
Assay [14] concerns the target T1, human neutrophil elastase (HNE), immobilized on agarose beads (human, UniProt P08246 30-247, limits assumed).
T1 construct: also called HNE beads; leukocyte elastase
T1 sequence (looked up): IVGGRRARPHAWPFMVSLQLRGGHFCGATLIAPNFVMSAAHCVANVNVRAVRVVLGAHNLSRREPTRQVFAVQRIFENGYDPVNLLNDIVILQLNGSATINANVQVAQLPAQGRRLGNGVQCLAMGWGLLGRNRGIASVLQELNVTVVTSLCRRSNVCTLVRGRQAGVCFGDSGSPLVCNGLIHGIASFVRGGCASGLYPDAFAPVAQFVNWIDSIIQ
The assay is described as follows: phage on HNE beads, abbreviated pH elution.

Assay [15] deals with T1, human neutrophil elastase (HNE), …. The assay is described as follows: phage on HNE beads, stepwise pH elution.

Sequence of streptavidin (agarose-immobilized, Sigma) (P22629 37-163 limits assumed): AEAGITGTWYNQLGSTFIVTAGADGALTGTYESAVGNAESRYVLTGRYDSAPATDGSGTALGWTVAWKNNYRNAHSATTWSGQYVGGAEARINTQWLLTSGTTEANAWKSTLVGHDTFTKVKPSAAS
Sequence of trypsin (immobilized active trypsin, Pierce; or free trypsin) (P00760 24-246): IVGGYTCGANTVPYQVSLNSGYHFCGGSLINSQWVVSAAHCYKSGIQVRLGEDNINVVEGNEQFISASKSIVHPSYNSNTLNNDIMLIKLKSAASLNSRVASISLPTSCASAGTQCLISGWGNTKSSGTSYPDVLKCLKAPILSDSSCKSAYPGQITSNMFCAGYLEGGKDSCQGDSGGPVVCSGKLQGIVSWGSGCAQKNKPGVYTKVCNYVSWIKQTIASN

Take “M13mp18 phage (wild type control, non-display phage)”: the % of input pfu left, +Protein A with Protein A-agarose beads was 72 % of input. Besides, the eluted phage, % of input was 0.00023 % of input in assay [1]; 0.1 % of input in assay [2]; 0.3 % of input in assay [4]; 0.0005 % of input in assay [5]; 0.0003 % of input in assay [6]; 0.2 % of input in assay [8]. Moreover, the relative binding (to M13MP18) in [1], in [2], in [5] and in assay [6] was 1 fold in each case. In addition, the % of input pfu left, +NRS +Protein A in [3] is 88 % of input. Further, the binding relative to M13mp18 in assay [4] turned out to be 1 fold. Besides, the % of input pfu left, +NRS in assay [7] was 104 % of input. This molecule had a binding relative to M13MP18 in assay [8] of 1 fold.
In the case of MK phage (control, no displayed domain), in assay [9], the percent of total phage recovered in elution buffer, 2 µl IAT is less than 1%; the percent of total phage recovered in elution buffer, 5 µl IAT was less than 1%; the percent of total phage recovered in elution buffer, 10 µl IAT is less than 1%. The molecule also had a percent of total phage recovered in elution buffer, 5 µl IS in [10] of less than 1%. For the same molecule, in assay [11], the percent of input phage recovered, CBS pH 6.5 stood at 0.00028%; the percent of input phage recovered, TBS pH 7.5 came out at 0.00034%; the total pfu recovered in elution buffer, CBS pH 6.5 turned out to be 1.35e+06 pfu; the total pfu recovered in elution buffer, TBS pH 7.5 turned out to be 1.48e+06 pfu. In assay [12], this molecule yielded a percent residual titer, 1 h, 2 µl IAT of 97%; a percent residual titer, 1 h, 5 µl IAT of 110%; a percent residual titer, 1 h, 10 µl IAT of 99%; a percent residual titer, 2 h, 2 µl IAT of 103%. In [12], this molecule came in with a percent residual titer, 2 h, 5 µl IAT of 111%; a percent residual titer, 2 h, 10 µl IAT of 93%; a percent residual titer, 4 h, 2 µl IAT of 95%; a percent residual titer, 4 h, 5 µl IAT of 96%. Moreover, the percent residual titer, 4 h, 10 µl IAT in assay [12] was 106%. In assay [13], this molecule had a percent residual titer, 1 h, 5 µl IS of 106%; a percent residual titer, 2 h, 5 µl IS of 96%; a percent residual titer, 4 h, 5 µl IS of 98%.

B1: MA-ITI-E7 phage (ITI-DI-III fusion with the EpiNE-7 changes around the P1 position) (designed binder)
chain: KEDSCQLGYSAGPCVAMFPRYFYNGTSMACETFQYGGCMGNGNNFVTEKECLQTCRGAAETVESCLAKPHTENSFTNVWKDDKTLDRYANYEGCLWNATGVVVCTGDETQCYGTWVPIGLAIPENEGGGSEGGGSEGGGSEGGGTKPPEYGDTPIPGYTYINPLDGTYPPGTEQNPANPNPSLEESQPLNTFMFQNNRFRNRQGALTVYTGTVTQGTDPVKTYYQYTPVSSKAMYDAYWNGKFRDCAFHSGFNEDPFVCEYQGQSSDLPQPPVNAGGGSGGGSGGGSEGGGSEGGGSEGGGSEGGGSGGGSGSGDFDYEKMANANKGAMTENADENALQSDAKGKLDSVATDYGAAIDGFIGDVSGLANGNGATGDFAGSNSQMAQVGDGDNSPLMNNFRQYLPSLPQSVECRPFVFSAGKPYEFSIDCDKINLFRGVFAFLLYVATFMYVFSTFANILRNKES
For the molecule B1, in assay [14], the “fold lower total fraction eluted than EpiNE-7 phage” value stood at 40 fold and the “fold total fraction eluted against MA-ITI phage” value was 10 fold. Also, the “fold lower total fraction eluted than EpiNE-7 phage” value in assay [15] was approximately 40 fold.

The values are drawn from patent US20060084113A1 (published 2006).
